The target of experiment [1] is human S100A6 (human). Nature of the experiment: ITC. Background: ITC needs no label: the signal is the heat of the interaction.
In experiment [2] the target is human S100A6 (human). Nature of the experiment: ITC. This is another data set of the same source.

By Kd is commonly meant the free concentration of one partner at which half of the binding sites on the other are occupied at equilibrium, for simple one-to-one binding. Lower therefore signals tighter binding.

Where two headings read alike, the source gives them in different places.

Sequence of peptide from Siah-interacting protein (SIP) (Q9HB71 188-218): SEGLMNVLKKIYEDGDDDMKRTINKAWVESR

In experiment [1], “peptide from Siah-interacting protein (SIP) (from UniProt Q9HB71 188-218)” gave a Kd of 26 µM, a dH of 2.9 kcal/mol and a fx comp of 1.5. In experiment [2], the Kd came to 20 µM.

Source of the values: paper PMC5995566.
